The target of assay [1] is Clostridium oremlandii methionine sulfoxide reductase A, Sec-to-Cys form (Clostridium oremlandii (strain OhILAs)). The experiment in a line: non-reducing SDS-PAGE; series of MsrA concentrations, 2 h with 0.2 mM free methionine sulfoxide; dimer ratios by ImageJ, fitted with Prism 5.
The target is the same in assay [2]. Description: non-reducing SDS-PAGE; time course, 84 μM MsrA with 0.2 mM free methionine sulfoxide; dimer ratios by ImageJ, fitted with Prism 5.

As for “Clostridium oremlandii methionine sulfoxide reductase A, Sec-to-Cys form (enzyme)”, in assay [1], the D1/2 (concentration of MsrA to reach half Dmax) worked out at 7.6 µM and the Dmax (maximal percent of dimer) is 98%. Moreover, in assay [2], the D1/2 (reaction time to reach half Dmax) turned out to be 5.8 min.

The values are drawn from publication PMC4479559.
